Experimental data taken from the nanobody polyreactivity screen of Harvey et al. (2022).

experiment: yeast display, Sf9 membrane polyspecificity reagent, FACS + sequencing; frameworks hold sequencing errors
Procedure, shortened: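 Nanobodies came from a synthetic yeast display library in Saccharomyces cerevisiae BJ5465, induced with galactose for 36–48 hours and stained for 1 hour at 4 °C with 10% biotinylated, detergent-solubilized Sf9 membrane reagent. Cells were enriched on streptavidin microbeads and then FACS-sorted, with low and high (top ~1%) gates set on anti-HA fluorescence for expression and streptavidin fluorescence for reagent binding. Each polyreactivity label reflects the gate a clone came from. Genes were amplified by colony PCR, sequenced by MiSeq 2 × 250 and filtered by CDR length.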

Row | Sequence | polyreactivity (PSR sort gate)
1 | QVQLVESGGGLIQAGGSLRLSCAASGSNFRYYALGWYRQAPGKESELVAAISQSGGSTHYAESVKGRFTISRDNAKITVYLQMNSLKAEDTAVYYCAKHWGPGTQVTVSS | low polyreactivity
2 | QVQLVESGGGLIQAGGSLRLSCAASGSTFGTYTRGWYRQAPGKERELVAAIRSGGITYYADSVKGRFTISRDNAKNTVYLQMNSLKPEDTAVYYCAKQYTGEPAMEYWGQGTQVTVSS | low polyreactivity
3 | QVQLVESGGGLIQAGGSRRLSCAASGIIFYPYTMGWYRQARGKERELVAAIRQSGTSTYYADSVKGRFTISRDNAKNTVYLQMNSLKPEDTAVYYCNADDHIYWRKGYDYWGQGTQVTVSS | low polyreactivity
4 | QVQLVESGGGLLKAGGSLRLSCAASGRIFDIYNMGWYRPAPGKERELVAAISSSGGRTYYADSVKGRFTISRDNAKTTVYLQMKSVKPEDTAVYYGAARPSKYVGSRGYDYWGQGTQVTVSS | high polyreactivity
5 | QVQLVESGGGLLQAGGRLRLSCAASVSIFTRYDMGWYRQAPGKEREFVAAISRGGGSTYYADSVKVRFTISLDNAKNTVYLQMISLKPENTAVYYCAPGVARYVKTASDYWGHGTQVTVSS | high polyreactivity
6 | QVQLVESGGGLLQAGGSLLLSCAASGITFYDNAMGWYRQAPGKERELVAGISYDGDSTYADSVKGRFTISRDNAKNTVYLQMNSLKPEDTAVYYCAALGPYEWLWAGDYWGQGTQVTVSS | low polyreactivity
7 | QVQLVESGGGLLQAGGSLPLSCAASGFTFVPYAMGLYIQAPGKERELDAAISSRGDSTYYADSVKGRFTISRDNAKNTVYLQMIRLSPEDTAFYYCIARTTPHMDYWGQGTQVTVSS | low polyreactivity
8 | QVQLVESGGGLLQAGGSLRISCAASGSTFYYYAMGWYRQAPGKERELVAAISRGGGSTYYADSVKGRFTISRDNAKNTVYLQMNSLKPEDTAVYYCAARRVGGGFYTWRNPAYEYWGQGTQVTVSS | high polyreactivity
9 | QVQLVESGGGLLQAGGSLRLIWAASGIIFVKNSMGWYRQAPGKERELVAAITVSGSRTYYADSVKGRFTISRDNAKNTVYLQMNSLKPEDTAVYYCNAYPYYRGRNMDSWGQGTQVTVSS | high polyreactivity
10 | QVQLVESGGGLLQAGGSLRLSCAASGFIFADNAMGRYIQAPGKERELVAGITSGGITNYADSVKGRFTISRDNAKNTVYLQMNSLKPEDSAVYYCAVYYRRWLSRYDYWGQGTQVTVSA | low polyreactivity
11 | QVQLVESGGGLLQAGGSLRLSCAASGFIFRFNAMGWYRQAPWTERELVAVIRWSSGSTYYADSVKGRFTISRDNAKNTVYLQMNSRKPEDTAVYYCAAVDDEYSIVWYDYWGQGTQVTVSA | low polyreactivity
12 | QVQLVESGGGLLQAGGSLRLSCAASGFTFFIYAMGWYRQAPGKEREFVAAITGSGGSTYYADSVKGRFRISRDNPKNTVYLLMNSLKPEDTAVYYCNKLSYGRSGYWGQGTQVTVSS | high polyreactivity
13 | QVQLVESGGGLLQAGGSLRLSCAASGFTIYRYAMGWYRQAPGKERELVGAITGGGGSTYYADSVKGRFTISRDNAKNTVYLQMNSLKPEDTAVYYCAVDVYHKGQYRWSYVYWGQGTQVTVSS | low polyreactivity
14 | QVQLVESGGGLLQAGGSLRLSCAASGGTFTWYAMGWYRQAPGKERELVAAISSDGSTYYADSVKGRFTISRDNAKNTVYLQMNSLKPEDTAVYYCAAYSSWGGFDYWGQGTQVTVSS | low polyreactivity
15 | QVQLVESGGGLLQAGGSLRLSCAASGITFYRNAMGWYRQAPGKERELVAAITWSGGSTYYADSVKGRFTISRDYAKNTVYLQMNSLKPEDSAVYYCNADYRHRYYWGQGTQVTVSS | high polyreactivity
16 | QVQLVESGGGLLQAGGSLRLSCAASGLTFVGYDMGWYRQAPGKERELVAAISTGGGSTYYADSVKGRFTISRDNAMNTVYLKMNSLKPEDTAVYYCNKLRLHGDRYDYWGQGTQVTVSS | high polyreactivity

Row | Sequence | polyreactivity (PSR sort gate)
17 | QVQLVESGGGLLQAGGSLRLSCAASGNTFAYNTMGWYIQAPGKERELVAAILTRGGSTYYADSVKGRFTISRDNAKKTVYLQMNSLNREDTAVYYGAADYRFHGYWSYDYWGQGTQVTVSS | low polyreactivity
18 | QVQLVESGGGLLQAGGSLRLSCAASGRIFGRNTKGWYRQAPGKERELVAVISWRGGSTYYADSVKGRFTISRDNAKNSVYLQMNSLKPEDTAVYYCNAKYPFSRRGDYWGQGTQVTVSS | high polyreactivity
19 | QVQLVESGGGLLQAGGSLRLSCAASGRTFGHYAMGWYRQAPGKEREFVAAITRGGGRTYYADSVKGRFTISRDNAKNTVYLQMNSLKPEDTAVYYCARKQYWGYDYWGQGTQVTVSS | low polyreactivity
20 | QVQLVESGGGLLQAGGSLRLSCAASGRTFKSYTMGWYRQAPGKERELVAAIRASGGITYYADSVKGRFTISRDNAKNTVYLQMNSLKPEDTAVYYCAARPRTRYDYWGQGTQVTVSS | high polyreactivity
21 | QVQLVESGGGLLQAGGSLRLSCAASGSISGYYAMGWYRQAPGKERELVASIRYTGARTYYADSVKGRFTISRDNAKNTVYLQMNSLKPEDTAVYYCAADVKRDRVWGGDYWGQGTQVTVSS | low polyreactivity
22 | QVQLVESGGGLLQAGGSLRLSCAASGSIYTPYAMGWSRQAPGKERELVATITQSGSSTYYADSVKGRFTISRDNAKNSVYLQMNSLKPEDTAVYYCAADVQNISFDYWGQGTQVTVSS | low polyreactivity
23 | QVQLVESGGGLLQAGGSLRLSCAASGSMFGLYAMGWYRQAPGKERELVAAISKSGGSTYYADSVKGRFTISRDNAKNTVYLQMNSLKPEDTAVYFCAARQYPRAGFDYWGQGTQVTVSS | high polyreactivity
24 | QVQLVESGGGLLQAGGSLRLSCAASGSTCHRNTMGWSRQAPGKESELVAGISLRGVRTYYADSVKSRFTISRDNAKNTVYLQMNSLKPEDTAVYYCAAGGPYTRNFKLGYWGQGTQVTVSS | high polyreactivity
25 | QVQLVESGGGLLQAGGSLRLSCAASGSTSPANAMGWYRQAPGKERELVAVINSGGGTNYADSVKGRFTISRDNAKNTVYLQMNCLKPEDTAVYYCAKGYRRSFIGYWYLKYGYWGQGSQVTVSS | high polyreactivity
26 | QVQLVESGGGLLQAGGSLRLSCAASVSIFDSYAMGWYREAPGKERELVAVISESGGTTYNADSVKGRFTISRDNAKNTVYLQMNSLKPEDTAVYYCAAVWYFQFGVWGYYWGQGTQVTVSS | low polyreactivity
27 | QVQLVESGGGLLQAGGSLRLSCAASVSIFEYYPMGWYRPAPGKERELVADITWSGGSTYYADSVKGRFTISRDNAKNTVDLQMNSLKPEDSAVYYCAKGYYVYGIFHRFGYYWGQGTQVTVSS | high polyreactivity
28 | QVQLVESGGGLLQAGGSLRLSCADSGRTFGGYSMGWYRQATGKERELVAAISKRSGSTYYADSVKGRFTISRVNAKNTVYLQMNSLKPEDTAVYYCNKVWFQRSVQPVEYDYWGQGTQVTVSS | high polyreactivity
29 | QVQLVESGGGLLQAGGSLRVSCAASGSIFHENAMGWYRQAPGKERELVAAIDQTGSTYADSVKGRFTISRDNAKNTVYLQMNSLKPEDTAVYYCAKGDVSLDYPSLEFDYWGQGSQVTVSS | low polyreactivity
30 | QVQLVESGGGLLQAGGSRRLSCAASGRTFYSYGMGWYRRAPGKERELVARNTWSGGTYYADSVKGRFTISRDNAKNTVYLQMNSLKPEDTAVYYCAKRSYYWEYYYWGQGTQVTVSA | high polyreactivity
31 | QVQLVESGGGLLQAGGTLRLSCAASGSTFSKNAMGWYRQAPGKERELVAAISSRGGNTYYADSVKGRFTISRDNAKNTVYLQMNSLKPEDTAVYYCAKALRTYQRTGWYDYWGQGTQVTVSS | high polyreactivity
32 | QVQLVESGGGLLQAGVSLRLSCAASGRIYSKYAMGRYRQAPGKERELVAAITYSGGSTYYADSVKGRFTISRDNAKNTVYLQMNSLKPEDSAVYYCAAVHCTSYSKWFGYWGQGTQVSVSS | low polyreactivity
